Assay results published in patent US20200369776A1.

Molecular target: full-length monkey CD137 on the cell surface (cynomolgus monkey)
Assay: flow cytometry, PMA + ionomycin activated cynomolgus T cells, antibody at 100 nM (Example 4d), Alexa Fluor 647 anti-human Fc; SSC-H against antibody binding

Chain of full-length monkey CD137 on the cell surface (cynomolgus monkey) (Q07011 other isoform, or with tags, fused parts or gaps): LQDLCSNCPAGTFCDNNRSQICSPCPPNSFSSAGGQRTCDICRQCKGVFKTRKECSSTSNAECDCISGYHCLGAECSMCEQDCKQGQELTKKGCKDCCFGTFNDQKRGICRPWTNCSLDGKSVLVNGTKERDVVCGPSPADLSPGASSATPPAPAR

- percent of cells in the lower right (antibody-positive) quadrant: 1.5%
Substance: human IgG4 isotype control antibody
